Results from paper PMC6719327 (Applied Microbiology and Biotechnology, 2019).
Where a chain is given by its changes, count along the chain named. In names and notes the source's numbering stands. Each block holds one binder with its values, some of them ahead of it.

Experiments:
Conditions in all cases: one partner purified
[1] = target: T1, endothelin A receptor (ETaR) (Homo sapiens (assumed), UniProt P25101); assay: flow cytometry on cells; competition: unlabelled scFv at 0.01 to 316 nM against FITC-labeled wild-type anti-GPCR at L = 150 nM on ETaR-expressing CHO cells, 1 h at 4 °C; Ki = IC50/(1 + L/Kd)
T1 construct: endothelin A receptor (ETaR), a GPCR; plasmid and cells were gifts from Gmax Biopharm LLC; also called GPCR; ETaR-expressing CHO cells; source: CHO cells stably expressing and displaying ETaR (provided by Gmax Biopharm LLC); on cells, and in vesicles prepared from them
T1 sequence (P25101 21-427): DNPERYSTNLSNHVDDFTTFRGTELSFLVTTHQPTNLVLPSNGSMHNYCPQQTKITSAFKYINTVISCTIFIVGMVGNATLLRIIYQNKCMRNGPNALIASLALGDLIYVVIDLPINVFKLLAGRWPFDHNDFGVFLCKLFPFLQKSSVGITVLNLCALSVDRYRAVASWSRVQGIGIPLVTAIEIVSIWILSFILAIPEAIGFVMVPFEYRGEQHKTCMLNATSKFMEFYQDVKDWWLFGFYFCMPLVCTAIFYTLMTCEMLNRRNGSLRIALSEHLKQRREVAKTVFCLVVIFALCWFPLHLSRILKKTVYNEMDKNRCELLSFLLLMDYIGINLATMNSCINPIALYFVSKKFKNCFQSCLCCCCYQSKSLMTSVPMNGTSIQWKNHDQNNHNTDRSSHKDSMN

[2] = target: T1, endothelin A receptor (ETaR); assay: flow cytometry on cells; purified scFv-His at 1 to 316 nM on ETaR-expressing CHO cells, 1 h at 4 °C; FITC-conjugated anti-His; Kd from the dose-response curve (GraphPad PRISM 5.0)
[3] = target: T1, endothelin A receptor (ETaR); assay: flow cytometry on cells; purified full-length antibodies titrated on ETaR-expressing CHO cells as for scFv; PE-conjugated anti-IgG; Kd from the dose-response curve
[4] = target: T1, endothelin A receptor (ETaR); assay: flow cytometry on cells; competition of unlabelled full-length antibodies, obtained similarly as for scFv; L = 13 nM; Ki = IC50/(1 + L/Kd)
[5] = target: T1, endothelin A receptor (ETaR); assay: as above; remark: listed apart in the source
[6] = target: T2, ETaR-GFP (UniProt P25101); assay: flow cytometry on cells; cells expressing ETaR-GFP incubated with purified scFv-His for 30 min, then anti-his-PE antibody (Fig. 4b)
T2 construct: endothelin A receptor (ETaR) with GFP fused to its C-terminus (in cytosol); also called ETaR cells; ETaR-GFP cells; source: CHO cells stably expressing ETaR-GFP (provided by Gmax Biopharm LLC; clone S-33 for vesicles); on cells, and in vesicles prepared from them; not shown: GFP, C-terminal, kept
T2 sequence (P25101 21-427): as above

[7] = target: T1, endothelin A receptor (ETaR); assay: flow cytometry on cells; Ki of purified scFv-Fc on ETaR-expressing cells; tracer and L not told for this format
[8] = target: T2, ETaR-GFP; assay: flow cytometry on cells; cells stably expressing ETaR-GFP incubated with purified full-length or scFv-Fc antibodies for 30 min, then PE-conjugated anti-IgG (Fig. 4c, 4d, 5b)

IC50 [1]: 568 nM | Ki [1]: 300 nM | Kd [2]: 169 nM
B1: anti-GPCR (ETaR) antibody 80H4, scFv-His, wild type (scFv, V domains shown)
VH: EVQLLESGGGLVQPGGSLRLSCAASGFTFSSYGMSWVRQAPGKGLEWVSAISTNGATAYYADSVKGRFTISRDNSKNTLYLQMNSLRAEDTAVYYCATEKGAMGYWGQGTLVTVSS
VL: DIVMTQTPLSLSVTPGQPASISCRSSQNIVHSTGNTYLEWYLQKPGQSPQLLIYKVSNRFSGVPDRFSGSGSGTDFTLKISRVEAEDVGVYYCFQGSHFPFTFGQGTKVEIK
notes: heavy-chain variable region of 80H4; (G4S)3 linker; light-chain variable region of 80H4; Order HV-(G4S)3-LV; made with a signal peptide (SP); also called WT; anti-GPCR-scFv-His; source: Expi293F, transfected, purified from supernatant (Ni-NTA); not shown: His tag, C-terminal, kept

Kd [3]: 13.6 nM | IC50 [4]: 30.6 nM | Ki [4]: 15.7 nM
B2: anti-GPCR (ETaR) antibody 80H4, full-length, mutant D73H (antibody, V domains shown)
VH: B1 VH with D73H
VL: B1 VL
notes: heavy-chain variable region as the heavy chain of m13; heavy-chain constant region as in m13; light-chain variable region as the light chain of m13; light-chain constant region as in m13; source: Expi293F, heavy and light chains co-expressed, purified from supernatant (Protein A); copies: 2 + 2

IC50 [1]: 210 nM | Ki [1]: 75.1 nM | Kd [2]: 83.5 nM
B3: anti-GPCR (ETaR) antibody 80H4, scFv-His, mutant N28Y (scFv, V domains shown)
VH: B1 VH
VL: B1 VL with N28Y
notes: heavy-chain variable region as in m3; (G4S)3 linker; light-chain variable region as in m3; source: Expi293F, transfected, purified from supernatant (Ni-NTA); not shown: His tag, C-terminal, kept

IC50 [1]: 170 nM | Ki [1]: 22.1 nM | Kd [2]: 22.4 nM
B4: anti-GPCR (ETaR) antibody 80H4, scFv-His, mutant T113A-V64M-N28Y (scFv, V domains shown)
VH: B1 VH with V64M, T113A
VL: B1 VL with N28Y
notes: heavy-chain variable region as in m3; (G4S)3 linker; light-chain variable region as in m3; Combination of N28Y and T113A-V64M made by the authors; source: Expi293F, transfected, purified from supernatant (Ni-NTA); not shown: His tag, C-terminal, kept

Ki [5]: 15.6 nM
B5: anti-GPCR (ETaR) antibody 80H4, full-length, mutant T113A-V64M-N28Y (antibody, V domains shown)
VH: B1 VH with V64M, T113A
VL: B1 VL with N28Y
notes: heavy-chain variable region as the heavy chain of m13; heavy-chain constant region as in m13; light-chain variable region as the light chain of m13; light-chain constant region as in m13; also called T113A-V64M-N28Y mutant full-length antibody; source: Expi293F, heavy and light chains co-expressed, purified from supernatant (Protein A); copies: 2 + 2

binding result [6]: binds
B6: anti-GPCR (ETaR) antibody 80H4, scFv-His, mutant R38Q (scFv, V domains shown)
VH: B1 VH with R38Q
VL: B1 VL
notes: as for B3

Ki [7]: 251 nM
B7: anti-GPCR (ETaR) antibody 80H4, scFv-Fc, wild type (Fc fusion)
VH: B1 VH
VL: B1 VL
notes: heavy-chain variable region as in m3; (G4S)3 linker; light-chain variable region as in m3; also called wild-type scFv-Fc; anti-GPCR-scFv-Fc; source: Expi293F, transfected, purified from supernatant (Protein A); not shown: Fc, C-terminal, kept

Ki [7]: 40.2 nM
B8: anti-GPCR (ETaR) antibody 80H4, scFv-Fc, mutant T113A-V64M-N28Y (Fc fusion)
VH: B1 VH with V64M, T113A
VL: B1 VL with N28Y
notes: heavy-chain variable region as in m3; (G4S)3 linker; light-chain variable region as in m3; also called mutant scFv-Fc; source: Expi293F, transfected, purified from supernatant (Protein A); not shown: Fc, C-terminal, kept

binding result [6]: binds
B9: anti-GPCR (ETaR) antibody 80H4, scFv-His, mutant T113A-R38Q (scFv, V domains shown)
VH: B1 VH with R38Q, T113A
VL: B1 VL
notes: heavy-chain variable region as in m3; (G4S)3 linker; light-chain variable region as in m3; also called T113A-R38Q scFv-His; source: Expi293F, transfected, purified from supernatant (Ni-NTA); not shown: His tag, C-terminal, kept

binding result [8]: binds
B10: anti-GPCR (ETaR) antibody 80H4, full-length, mutant with six mutations (S115N-S30R-D73H combined with T113A-V64M-N28Y) (antibody, V domains shown)
VH: B1 VH with S30R, V64M, D73H, T113A, S115N
VL: B1 VL with N28Y
notes: heavy-chain variable region as the heavy chain of m13; heavy-chain constant region as in m13; light-chain variable region as the light chain of m13; light-chain constant region as in m13; also called the mutant with these six mutations; the full-length antibody clone containing the 6 point mutations; source: Expi293F, heavy and light chains co-expressed, purified from supernatant (Protein A); …

Kd [3]: 10.8 nM | IC50 [4]: 22.4 nM | Ki [4]: 10.2 nM
B11: anti-GPCR (ETaR) antibody 80H4, full-length, mutant S115N-S30R (antibody, V domains shown)
VH: B1 VH with S30R, S115N
VL: B1 VL
notes: as for B2

Kd [3]: 21.5 nM | IC50 [4]: 50.1 nM | Ki [4]: 31.3 nM
B12: anti-GPCR (ETaR) antibody 80H4, full-length, wild type (antibody, V domains shown)
VH: B1 VH
VL: B1 VL
notes: heavy-chain variable region of 80H4; heavy-chain constant region (HC); labelled by anti-human IgG; light-chain variable region of 80H4; light-chain constant region (LC); also called WT; full-length wild-type antibody; source: Expi293F, heavy and light chains co-expressed, purified from supernatant (Protein A); copies: 2 + 2

Kd [3]: 8.27 nM | IC50 [4]: 16 nM | Ki [4]: 6.2 nM
B13: anti-GPCR (ETaR) antibody 80H4, full-length, mutant S115N-S30R-D73H (antibody, V domains shown)
VH: B1 VH with S30R, D73H, S115N
VL: B1 VL
notes: heavy-chain variable region as the heavy chain of m13; heavy-chain constant region as in m13; light-chain variable region as the light chain of m13; light-chain constant region as in m13; also called S115N-D73H-S30R; source: Expi293F, heavy and light chains co-expressed, purified from supernatant (Protein A); copies: 2 + 2

IC50 [1]: 227 nM | Ki [1]: 83.4 nM | Kd [2]: 87 nM
B14: anti-GPCR (ETaR) antibody 80H4, scFv-His, mutant T113A-V64M (scFv, V domains shown)
VH: B1 VH with V64M, T113A
VL: B1 VL
notes: as for B3
